Ends that are not written are not given here.
Columns and labels:
[1] = molecular target: T1, adrenomedullin receptor (receptor binding assay); assay: adrenomedullin receptor binding assay, method not described
T1 chain 1: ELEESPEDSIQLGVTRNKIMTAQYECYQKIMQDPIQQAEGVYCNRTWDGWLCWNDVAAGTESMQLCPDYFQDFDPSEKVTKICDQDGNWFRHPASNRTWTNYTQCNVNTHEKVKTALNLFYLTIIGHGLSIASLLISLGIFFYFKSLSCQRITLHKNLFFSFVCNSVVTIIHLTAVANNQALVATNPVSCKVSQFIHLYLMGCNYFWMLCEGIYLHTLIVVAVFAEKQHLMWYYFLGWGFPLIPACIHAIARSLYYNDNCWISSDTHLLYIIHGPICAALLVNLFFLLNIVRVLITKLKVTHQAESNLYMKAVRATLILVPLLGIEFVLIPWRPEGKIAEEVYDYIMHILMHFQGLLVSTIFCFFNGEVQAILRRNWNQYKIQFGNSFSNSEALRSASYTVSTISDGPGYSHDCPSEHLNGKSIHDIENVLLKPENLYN
T1 chain 2: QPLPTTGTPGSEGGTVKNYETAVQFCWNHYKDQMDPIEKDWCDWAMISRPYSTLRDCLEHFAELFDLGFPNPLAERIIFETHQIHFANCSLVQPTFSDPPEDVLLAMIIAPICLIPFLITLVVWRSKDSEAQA

[2] = molecular target: T2, calcitonin receptor (receptor binding assay); assay: calcitonin receptor binding assay, method not described
T2 construct: also called rCalcitonin RBA; CT

[3] = molecular target: amylin receptor (nucleus accumbens membranes prepared from rat brain) (rat, UniProt P32214 25-516); assay: radioligand displacement, 125I-rat amylin, rat nucleus accumbens membranes
Protocol: Male Sprague-Dawley® rats (200-250) grams were sacrificed by decapitation. Brains were removed and place in cold phosphate-buffered saline (PBS). From the ventral surface, cuts were made rostral to the hypothalamus, bounded laterally by the olfactory tracts and extending at a 45° angle medially from these tracts. This basal forebrain tissue, containing the nucleus accumbens and surrounding regions, was weighed and homogenized in ice-cold 20 mM HEPES buffer (20 mM HEPES acid, pH adjusted to 7.4 with NaOH at 23° C.). Membranes were washed three times in fresh buffer by centrifugation for 15 minutes at 48,000×g. The final membrane pellet was resuspended in 20 mM HEPES buffer containing 0.2 mM phenylmethylsulfonyl fluoride (PMSF).
(§1) Solutions were incubated for 60 minutes at 2 C. […] Filters were washed immediately before filtration with 5 ml cold PBS, and immediately after filtration with 15 ml cold PBS. […] Competition curves were generated by measuring binding in the presence of 10⁻¹² to 10⁻⁶ M unlabeled test compound and were analyzed by nonlinear regression using a 4-parameter logistic equation (INPLOT program; […] Software, San Diego, Calif.).

[4] = molecular target: T3, CGRP receptor (membranes prepared from SK-N-MC cells) (UniProt Q16602 23-461; O60894 27-148, limits assumed); assay: radioligand displacement, 125I-hCGRP, SK-N-MC cell membranes
T3 construct: whole, on cells; Endogenous receptor in SK-N-MC cell membranes; also called CGRP receptors; CGRP RBA
Protocol: as §1

[5] = molecular target: T2, calcitonin receptor (receptor binding …); assay: rCalcitonin RBA, method not described
[6] = molecular target: calcitonin receptor of CHO cells; assay: cell-based or functional assay

Sequence of amylin receptor (nucleus accumbens membranes prepared from rat brain) (P32214 25-516): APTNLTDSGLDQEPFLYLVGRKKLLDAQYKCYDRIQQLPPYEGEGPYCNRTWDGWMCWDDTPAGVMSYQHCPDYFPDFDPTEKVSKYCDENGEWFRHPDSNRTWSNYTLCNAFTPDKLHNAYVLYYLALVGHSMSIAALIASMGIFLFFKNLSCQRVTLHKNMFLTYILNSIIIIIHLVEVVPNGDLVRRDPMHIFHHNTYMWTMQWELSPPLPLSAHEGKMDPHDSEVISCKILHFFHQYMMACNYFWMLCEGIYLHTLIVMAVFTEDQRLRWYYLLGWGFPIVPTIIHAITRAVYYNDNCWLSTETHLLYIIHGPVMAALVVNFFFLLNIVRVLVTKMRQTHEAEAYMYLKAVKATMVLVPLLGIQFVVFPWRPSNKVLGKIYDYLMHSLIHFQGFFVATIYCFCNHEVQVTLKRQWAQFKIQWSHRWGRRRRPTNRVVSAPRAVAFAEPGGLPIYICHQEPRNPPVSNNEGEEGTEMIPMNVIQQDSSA
T3 sequence (O60894 27-148 limits assumed, chain 2 of 2, one chain of several): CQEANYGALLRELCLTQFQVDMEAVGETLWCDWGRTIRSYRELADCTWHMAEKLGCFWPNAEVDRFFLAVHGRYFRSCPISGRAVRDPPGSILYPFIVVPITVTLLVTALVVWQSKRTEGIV

Row | Binder | IC50 [1] [nM] | IC50 [2] [nM] | IC50 [3] [nM] | IC50 [4] [nM] | IC50 [5] [nM] | EC50, cAMP (AlphaScreen), CHO cells, Average [6] [nM] | EC50, cAMP (AlphaScreen), CHO cells, Experiment 1 [6] [nM] | EC50, cAMP (AlphaScreen), CHO cells, Experiment 3 [6] [nM] | EC50, cAMP (AlphaScreen), CHO cells, Experiment 2 [6] [nM]
1 | VQNLSHRLWQLMGPAGRQDSAPVDPSSPHSY-NH2 [AFP-6 analog SEQ ID NO: 14] | 59 |  |  |  |  |  |  |  | 
2 | VGCGNLSTCQVQNLSHRLWQLRQDSAPVDPSSPHSY-NH2 (ends and bridges not checked) [AFP-6 analog SEQ ID NO: 29] | 1000 | 9 | 7.5 | 111 |  |  |  |  | 
3 | TQAQLLRVGCSNLSTCQVQNLSHRLWQLMGPAGRQDSAPVDPSSPHSY-NH2 (ends and bridges not checked) [AFP-6 analog SEQ ID NO: 20] | 36 | 16 | 1.9 | 25 |  |  |  |  | 
4 | RVGCVLGTCQVQNLSHRLWQLMGPAGRQDSAPVDPSSPHSY-NH2 (ends and bridges not checked) [AFP-6 analog SEQ ID NO: 10] | 7.1 | 55 | 5.1 | 1.4 |  |  |  |  | 
5 | GCNTATCQVQNLSHRLWQLRQDSAPVDPSSPHSY-NH2 (ends and bridges not checked) [AFP-6 analog SEQ ID NO: 31] | 1000 | 51 | 12 | 18 |  |  |  |  | 
6 | VCNTATCQVQNLSHRLWQLRQDSAPVDPSSPHSY-NH2 (ends and bridges not checked) [AFP-6 analog SEQ ID NO: 30] | 1000 | 128 | 19 | 37 |  |  |  |  | 
7 | GCNTATCQVQNLSHRLWQLRQDSAPVEPSSPHSY-NH2 (ends and bridges not checked) [AFP-6 analog SEQ ID NO: 37] | 1000 | 121 | 39 | 130 |  |  |  |  | 
8 | VGCVLGTCQVQNLSHRLWQLMGPAGRQDSAPVDPSSPHSY-NH2 (not fully specified; ends and bridges not checked) [Human AFP-6 [8-47]] | 6.4 | 24 | 12 |  |  |  |  |  | 
9 | VGCVLGTCQVQNLSHRLWQLMGPAGRQDSAPVEPSSPHSY-NH2 (ends and bridges not checked) [AFP-6 analog SEQ ID NO: 35] | 37 | 153 | 17 | 4.7 |  |  |  |  | 
10 | CVLGTCQVQNLSHRLWQLMGPAGRQDSAPVDPSSPHSY-NH2 (ends and bridges not checked) [AFP-6 analog SEQ ID NO: 12] | 18 | 198 | 9.8 | 2.2 |  |  |  |  | 
11 | TQAQLLRVGCVLGTCQVQNLSHRLWQLRQDSAPVDPSSPHSY-NH2 (ends and bridges not checked) [AFP-6 analog SEQ ID NO: 16] | 1000 | 22 | 21 | 1.5 |  |  |  |  | 
12 | GCVLGTCQVQNLSHRLWQLMGPAGRQDSAPVDPSSPHSY-NH2 (ends and bridges not checked) [AFP-6 analog SEQ ID NO: 11] | 11 | 27 | 7.7 | 0.93 |  |  |  |  | 
13 | GMVLGTMQVQNLSHRLWQLMGPAGRQDSAPVDPSSPHSY-NH2 [AFP-6 analog SEQ ID NO: 26] | 37 |  | 48 | 26 |  |  |  |  | 
14 | r/h Adrenomedullin (ends and bridges not checked; cysteine pairing not given here) peptide: YRQSMNNFQGLRSFGCRFGTCTVQKLAHQIYQFTDKDKDNVAPRSKISPQGY |  |  | 123 |  | 33 to 68 |  |  |  | 
15 | TQAQLLRVGCNTATCQVQNLSHRLWQLMGPAGRQDSAPVDPSSPHSY-NH2 (ends and bridges not checked) [AFP-6 analog SEQ ID NO: 21] | 47 | 17 | 8.3 | 8.5 |  |  |  |  | 
16 | TQAQLLRVGCVLGTCQVQNLSHRLWQLMGPAGRQESAPVEPSSPHSY-NH2 (ends and bridges not checked) [AFP-6 analog SEQ ID NO: 32] | 7.1 | 1000 | 16 | 2.3 |  |  |  |  | 
17 | TQAQLLRVGMVLGTMQVQNLSHRLWQLMGPAGRQDSAPVDPSSPHSY-NH2 [AFP-6 analog SEQ ID NO: 25] | 120 |  | 139 | 80 |  |  |  |  | 
18 | CVLGTCQVQNLSHRLWQLRQESAPVEPSSPHSY-NH2 (ends and bridges not checked) [AFP-6 analog SEQ ID NO: 19] | 1000 | 247 | 29 | 12.7 |  |  |  |  | 
19 | TQAQLLRVGCVLGTCQVQNLSHRLWQLDSAPVDPSSPHSY-NH2 (ends and bridges not checked) [AFP-6 analog SEQ ID NO: 17] | 304 |  | 209 | 10.5 |  |  |  |  | 
20 | GCSNLSTCQVQNLSHRLWQLRQDSAPVEPSSPHSY-NH2 (ends and bridges not checked) [AFP-6 analog SEQ ID NO: 38] |  | 17 | 9.9 | 208 |  |  |  |  | 
21 | GCGNLSTCQVQNLSHRLWQLRQDSAPVEPSSPHSY-NH2 (ends and bridges not checked) [AFP-6 analog SEQ ID NO: 39] | 1000 | 31 | 14 |  |  |  |  |  | 
22 | VGCVLGTCQVQNLSHRLWQLRQDSAPVDPSSPHSY-NH2 (ends and bridges not checked) [AFP-6 analog SEQ ID NO: 18] | 1000 | 24 | 18 | 3.6 |  |  |  |  | 
23 | VGCVLGTCQVQNLSHRLWQLRQDSAPVEPSSPHSY-NH2 (ends and bridges not checked) [AFP-6 analog SEQ ID NO: 36] | 1000 | 198 | 39 | 14 |  |  |  |  | 
24 | VGMVLGTMQVQNLSHRLWQLRQDSAPVDPSSPHSY-NH2 [AFP-6 analog SEQ ID NO: 27] | 1000 |  |  |  |  |  |  |  | 
25 | GCVLGTCQVQNLSHRLWQLRQESAPVEPSSPHSY-NH2 (ends and bridges not checked) [AFP-6 analog SEQ ID NO: 40] | 1000 |  |  |  |  |  |  |  | 
26 | CGNLSTCMLGTYTQDFNKFHTFPQTAIGVGAP-NH2 (ends and bridges not checked) [Human Calcitonin] |  |  |  |  |  | 0.097 | 0.077 | 0.075 | 
27 | KCNTATCATQRLANFLVRSSNNLGPVLPPTNVGSNTY (peptide, UniProt P12969 38-74, looked up) [rat amylin] |  |  |  |  |  | 24 | 21.6 | 19.6 | 30.9
28 | Human Adrenomedullin (ends and bridges not checked) peptide: YRQSMNNFQGLRSFGCRFGTCTVQKLAHQIYQFTDKDKDNVAPRSKISPQGY-NH2 |  |  |  |  |  | 1740 |  | 622 | 3600

From US20080207501A1 (AMYLIN PHARMACEUTICALS, published 2008)
